Test results as given in US20240034774A1 (Gilead, published 2024).
Substitutions are numbered along the chain they refer to.

B1: Antibody A-3 (antibody, human IgG1, kappa)
heavy: QVQLLQSGAAVTKPGASVRVSCEASGYNIRDYFIHWWRQAPGQGLQWVGWINPKTGQPNNPRQFQGRVSLTRHASWDFDTFSFYMDLKALRSDDTAVYFCARQRSDYWDFDVWGSGTQVTVSSASTKGPSVFPLAPSSKSTSGGTAALGCLVKDYFPEPVTVSWNSGALTSGVHTFPAVLQSSGLYSLSSVVTVPSSSLGTQTYICNVNHKPSNTKVDKKVEPKSCDKTHTCPPCPAPELLGGPDVFLFPPKPKDTLMISRTPEVTCVVVDVSHEDPEVKFNWYVDGVEVHNAKTKPREEQYNSTYRVVSVLTVLHQDWLNGKEYKCKVSNKALPAPEEKTISKAKGQPREPQVYTLPPSREEMTKNQVSLTCLVKGFYPSDIAVEWESNGQPENNYKTTPPVLDSDGSFFLYSKLTVDKSRWQQGNVFSCSVLHEALHSHYTQKSLSLSPGK
light: DIQMTQSPSSLSASVGDTVTITCQANGYLNWYQQRRGKAPKLLIYDGSKLERGVPSRFSGRRWGQEYNLTINNLQPEDIATYFCQVYEFVVPGTRLDLKRTVAAPSVFIFPPSDEQLKSGTASVVCLLNNFYPREAKVQWKVDNALQSGNSQESVTEQDSKDSTYSLSSTLTLSKADYEKHKVYACEVTHQGLSSPVTKSFNRGEC
B2: Antibody A-4 (antibody, human IgG1, kappa)
heavy: B1 heavy with G242A
light: B1 light
B3: Antibody A-5 (antibody, human IgG1, kappa)
heavy: B1 heavy with A336L
light: B1 light
B4: Antibody A-6 (antibody, human IgG1, kappa)
heavy: B1 heavy with D245S, F249L, R298P, Y306L, V311I, E338I, P402L
light: B1 light
B5: 1.36.34-1 (antibody, human IgG1, kappa)
heavy: QVQLVQSGAEVKKPGASVRVSCKASGYNIRDYFMHWWRQAPGQGLQWVGWINPKTGQPNNPRQFQGRVTMTRHASWDFDTFSAYMDLSRLRSDDTATYFCARQRTDYWDFDVWGQGTMVTVSSASTKGPSVFPLAPSSKSTSGGTAALGCLVKDYFPEPVTVSWNSGALTSGVHTFPAVLQSSGLYSLSSVVTVPSSSLGTQTYICNVNHKPSNTKVDKKVEPKSCDKTHTCPPCPAPELLAGPDVFLFPPKPKDTLMISRTPEVTCVVVDVSHEDPEVKFNWYVDGVEVHNAKTKPREEQYNSTYRVVSVLTVLHQDWLNGKEYKCKVSNKALPLPEEKTISKAKGQPREPQVYTLPPSREEMTKNQVSLTCLVKGFYPSDIAVEWESNGQPENNYKTTPPVLDSDGSFFLYSKLTVDKSRWQQGNVFSCSVLHEALHSHYTQKSLSLSPGK
light: B1 light with K49N, N68T, N72S, N73S, V91T, L98I
B6: 1.31.35-1 (antibody, human IgG1, kappa, V domains shown)
VH: QVQLVQSGAEVTKPGASVRVSCEASGYNIRDYFIHWWRQAPGQGLQWVGWINPKTGQPNNPRQFQGRVSLTRHASWDFDTFSFYMDLKALRSDDTATYFCARQRSDYWDFDVWGSGTQVTVSS
VL: DIQMTQSPSSLSASVGDRVTITCQANGYLNWYQQKPGKAPKLLIYDGSNLETGVPSRFSGSRWGQEYTLTISSLQPEDIATYFCQVYEFVGPGTNLDIKR
B7: 1.32.35-1 (antibody, human IgG1, kappa, V domains shown)
VH: B6 VH with T97V, S105T
VL: B6 VL
B8: 1.33.35-1 (antibody, human IgG1, kappa, V domains shown)
VH: B6 VH with T12K, E23K, S69T
VL: B6 VL
B9: 1.34.35-1 (antibody, human IgG1, kappa, V domains shown)
VH: B6 VH with T12K, E23K, S69T, T97V, S105T
VL: B6 VL
B10: 1.35.35-1 (antibody, human IgG1, kappa, V domains shown)
VH: B6 VH with T12K, E23K, I34M, S69T, L70M, K88S, A89R, S105T, S115Q, Q118M
VL: B6 VL
B11: 1.36.35-1 (antibody, human IgG1, kappa, V domains shown)
VH: QVQLVQSGAEVKKPGASVRVSCKASGYNIRDYFMHWWRQAPGQGLQWVGWINPKTGQPNNPRQFQGRVTMTRHASWDFDTFSAYMDLSRLRSDDTATYFCARQRTDYWDFDVWGQGTMVTVSS
VL: B6 VL
B12: 1.31.36-1 (antibody, human IgG1, kappa)
heavy: B1 heavy with L5V, A10E, V97T, G242A, A336L
light: DIQMTQSPSSLSASVGDRVTITCQANGYLNWYQQKPGKAPKLLIYDGSNLETGVPSRFSGSRWGQEYTLTISSLQPEDIATYFCQVYEFVTPGTNLDIKRTVAAPSVFIFPPSDEQLKSGTASVVCLLNNFYPREAKVQWKVDNALQSGNSQESVTEQDSKDSTYSLSSTLTLSKADYEKHKVYACEVTHQGLSSPVTKSFNRGEC
B13: 1.32.36-1 (antibody, human IgG1, kappa)
heavy: B1 heavy with L5V, A10E, S105T, G242A, A336L
light: B12 light
B14: 1.33.36-1 (antibody, human IgG1, kappa)
heavy: B1 heavy with L5V, A10E, T12K, E23K, S69T, V97T, G242A, A336L
light: B12 light
B15: 1.34.36-1 (antibody, human IgG1, kappa)
heavy: B1 heavy with L5V, A10E, T12K, E23K, S69T, S105T, G242A, A336L
light: B12 light
B16: 1.35.36-1 (antibody, human IgG1, kappa)
heavy: B5 heavy with A83F
light: B12 light
B17: 1.36.36-1 (antibody, human IgG1, kappa)
heavy: B5 heavy
light: B12 light

Columns and labels:
[1] = molecular target: HIV-1 envelope glycoprotein gp120 of viral isolate 92US657 (HIV-1); assay: cell-based or functional assay
[2] = molecular target: HIV-1 envelope glycoprotein gp120 of viral isolate 92US712 (HIV-1); assay: cell-based or functional assay
[3] = molecular target: gp120 Bal (HIV (Bal)); assay: single-point ELISA at EC50 conc. of A-1
[4] = molecular target: gp120 SHIV SF162 P3 (SHIV SF162 P3); assay: single-point ELISA at EC50 conc. of A-1
[5] = molecular target: gp120 CAAN (HIV (CAAN)); assay: single-point ELISA at EC50 conc. of A-1
[6] = molecular target: BSA (UniProt P02769 25-607); assay: single-point ELISA, BSA control

Row | Binder | ADCC EC50, NK Donor 1 [1] | ADCC EC50, NK Donor 2 [1] | ADCC EC50, NK Donor 3 [1] | ADCC Emax, NK Donor 1 [1] | ADCC Emax, NK Donor 2 [1] | ADCC Emax, NK Donor 3 [1] | ADCC EC50, NK Donor 1 [2] | ADCC EC50, NK Donor 2 [2] | ADCC EC50, NK Donor 3 [2] | ADCC Emax, NK Donor 1 [2] | ADCC Emax, NK Donor 2 [2] | ADCC Emax, NK Donor 3 [2] | ELISA A450 [3] | ELISA A450 [4] | ELISA A450 [5] | ELISA A450 [6]
1 | B1 | 0.68 µg/mL | 0.67 µg/mL | 1.39 µg/mL | 49% | 49% | 56% | 0.07 µg/mL | 0.08 µg/mL | 0.2 µg/mL | 77% | 59% | 67% |  |  |  | 
2 | B2 | 0.6 µg/mL | 1.21 µg/mL | 1.64 µg/mL | 52% | 53% | 50% | 0.2 µg/mL | 0.13 µg/mL | 0.4 µg/mL | 78% | 61% | 64% |  |  |  | 
3 | B3 | 0.57 µg/mL | 0.83 µg/mL | 0.76 µg/mL | 58% | 61% | 61% | 0.19 µg/mL | 0.08 µg/mL | 0.09 µg/mL | 79% | 61% | 66% |  |  |  | 
4 | B4 | 3.93 µg/mL | 1.21 µg/mL | 3.21 µg/mL | 54% | 53% | 52% | 0.27 µg/mL | 0.54 µg/mL | 0.18 µg/mL | 68% | 54% | 51% |  |  |  | 
5 | B5 |  |  |  |  |  |  |  |  |  |  |  |  | 1.01 A450 | 0.15 A450 | 0.43 A450 | 0.07 A450
6 | B6 |  |  |  |  |  |  |  |  |  |  |  |  | 0.9 A450 | 0.61 A450 | 0.77 A450 | 0.06 A450
7 | B7 |  |  |  |  |  |  |  |  |  |  |  |  | 0.89 A450 | 0.5 A450 | 0.59 A450 | 0.06 A450
8 | B8 |  |  |  |  |  |  |  |  |  |  |  |  | 1.03 A450 | 0.71 A450 | 0.81 A450 | 0.07 A450
9 | B9 |  |  |  |  |  |  |  |  |  |  |  |  | 0.94 A450 | 0.56 A450 | 0.77 A450 | 0.06 A450
10 | B10 |  |  |  |  |  |  |  |  |  |  |  |  | 0.88 A450 | 0.42 A450 | 0.67 A450 | 0.06 A450
11 | B11 |  |  |  |  |  |  |  |  |  |  |  |  | 0.89 A450 | 0.16 A450 | 0.36 A450 | 0.06 A450
12 | B12 |  |  |  |  |  |  |  |  |  |  |  |  | 1.06 A450 | 0.93 A450 | 0.9 A450 | 0.06 A450
13 | B13 |  |  |  |  |  |  |  |  |  |  |  |  | 0.92 A450 | 0.62 A450 | 0.64 A450 | 0.06 A450
14 | B14 |  |  |  |  |  |  |  |  |  |  |  |  | 0.94 A450 | 0.88 A450 | 0.82 A450 | 0.06 A450
15 | B15 |  |  |  |  |  |  |  |  |  |  |  |  | 0.94 A450 | 0.77 A450 | 0.71 A450 | 0.07 A450
16 | B16 |  |  |  |  |  |  |  |  |  |  |  |  | 0.85 A450 | 0.56 A450 | 0.67 A450 | 0.06 A450
17 | B17 |  |  |  |  |  |  |  |  |  |  |  |  | 1.12 A450 | 0.14 A450 | 0.34 A450 | 0.06 A450
